According to paper doi:10.1101/2024.01.07.574580:

How the values were obtained:
[1] = biological target: YY1 cellular transcription factor (UniProt P25490); assay: co-immunoprecipitation (FLAG-EBNA-LP IP, YY1 immunoblot, band signal quantified); details: 50% IP lanes; trans-complemented LPKO LCLs from total B cells; parent: 1.0
[2] = biological target: YY1 cellular transcription factor (UniProt P25490); assay: co-immunoprecipitation (YY1 IP, FLAG-EBNA-LP immunoblot, band signal quantified); details: 50% IP lanes; trans-complemented LPKO LCLs; parent: 1

UniProt P25490, sequence (P25490 whole entry): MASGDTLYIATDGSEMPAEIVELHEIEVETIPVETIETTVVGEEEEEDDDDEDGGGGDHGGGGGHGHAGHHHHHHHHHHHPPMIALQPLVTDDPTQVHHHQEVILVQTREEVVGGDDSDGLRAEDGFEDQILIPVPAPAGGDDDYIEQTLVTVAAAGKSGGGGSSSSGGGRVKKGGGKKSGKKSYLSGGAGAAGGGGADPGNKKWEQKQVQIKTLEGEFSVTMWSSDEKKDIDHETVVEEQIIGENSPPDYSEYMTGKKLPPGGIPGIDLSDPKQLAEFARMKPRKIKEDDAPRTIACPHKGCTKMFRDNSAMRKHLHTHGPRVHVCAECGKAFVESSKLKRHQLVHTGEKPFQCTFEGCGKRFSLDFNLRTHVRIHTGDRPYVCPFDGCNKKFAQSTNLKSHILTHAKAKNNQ

Question: For “FLAG-EBNA-LP, wild type (B95-8), four W domains W:L25A; W:L28A; W:L29A; Y:L13A; Y:L17A; Y:L18A”, which response [1] is on record?
Answer: 0.01

Question: What about the response [2] of the same substance?
Answer: 0
